PMC9016351

target: GB‐DRP1; experiment: ddFP assay in cells (confocal microscopy); conditions: U2OS BAX/BAK DKO cells, 3 h after apoptosis induction; n = 3 independent experiments (n = 100 cells each); parent: est. 21; read off a plot

Row | Substance | response
1 | RA‐BAX (from UniProt Q07812) K57E | 22%
2 | RA‐BAX (from UniProt Q07812) G67R; S184V | 3%
3 | RA‐BAX (from UniProt Q07812) L63E | 0%
4 | RA‐BAX (from UniProt Q07812) K21E | 31%
5 | RA‐BAX (from UniProt Q07812) G40E | 15%

The next lines start with the values.

Row | response | Substance
6 | 15% | RA‐BAX (from UniProt Q07812) G67R
7 | 21% | RA‐BAX (from UniProt Q07812) K58E
8 | 38% | RA‐BAX (from UniProt Q07812) L59C
9 | 19% | RA‐BAX (from UniProt Q07812) R134E
10 | 7.5% | RA‐BAX (from UniProt Q07812) S184V
11 | 26% | RA‐BAX (from UniProt Q07812) K21E; R134E

target: RA‐BAX (UniProt Q07812); experiment: ddFP assay in cells (confocal microscopy); conditions: U2OS BAX/BAK DKO cells, 3 h after apoptosis induction; n = 3 independent experiments (n = 100 cells each); parent: est. 28; read off a plot
UniProt Q07812, sequence (Q07812 whole entry): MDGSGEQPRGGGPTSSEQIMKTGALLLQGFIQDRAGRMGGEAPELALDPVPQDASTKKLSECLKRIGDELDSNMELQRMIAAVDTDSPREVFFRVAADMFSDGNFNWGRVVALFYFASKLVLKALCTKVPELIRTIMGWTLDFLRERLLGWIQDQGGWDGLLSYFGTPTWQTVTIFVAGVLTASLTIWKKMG

Row | Substance | response
12 | GB‐DRP1 K642E | 33%
13 | GB‐DRP1 R376E | 34%
14 | GB‐DRP1 D221A | 27%

Other lines, results leading:

Row | response | Substance
15 | 24% | GB‐DRP1 K38A
16 | 35% | GB‐DRP1 K557R; K560R; K569R; K571R
